B1: Chimera F3748: chimera of the CYP102A1/A2/A3 seven-crossover library (protein)
chain: KQASAIPQPKTYGPLKNLPHLEKEQLSQSLWRIADELGPIFRFDFPGVSSVFVSGHNLVAEVCDEERFDKSIEGALEKVRAFSGDGLATSWTHEPNWRKAHNILMPTFSQRAMKDYHEKMVDIATQLIQKWSRLNPNEEIDVADDMTRLTLDTIGLCGFNYRFNSFYRDQPHPFITSMVRALDEAMNKLQRANPDDPAYDENKRQFQEDIKVMNDLVDRMIAERKANPDENIKDLLSLMLYAKDPVTGETLDDENIRYQIITFLIAGHETTSGLLSFATYFLLKHPDKLKKAYEEVDRVLTDAAPTYKQVLELTYIRMILNESLRLWPTAPAFSLYAKEDTVLGGEYPISKGQPVTVLIPKLHRDQNAWGPDAEDFRPERFEDPSSIPHHAYKPFGNGQRACIGMQFALQEATMVLGLVLKHFELINHTGYELKIKEALTIKPDDFKITVKPRKTAAINVQRKEQA
modifications: Chimeric Cytochrome P450 heme group polypeptide sequence from CYP102A1 (Bacillus megaterium); CYP102A2 (Bacillus subtilis) and CYP102A3 (Bacillus subtilis)
notes: chimera of the CYP102A1/A2/A3 seven-crossover library
B2: Chimera 46-73: CYP102A1 heme domain with residues 46-73 from CYP102A2 (protein)
chain: TIKEMPQPKTFGELKNLPLLNTDKPVQALMKIADELGEIFKFEAPAGTTIVVSGHELVKEVCDEERFDKSIEGALKFVRDFAGDGLATSWTHEKNWKKAHNILLPSFSQQAMKGYHAMMVDIAVQLVQKWERLNADEHIEVPEDMTRLTLDTIGLCGFNYRFNSFYRDQPHPFITSMVRALDEAMNKLQRANPDDPAYDENKRQFQEDIKVMNDLVDKIIADRKASGEQSDDLLTHMLNGKDPETGEPLDDENIRYQIITFLIAGHETTSGLLSFALYFLVKNPHVLQKAAEEAARVLVDPVPSYKQVKQLKYVGMVLNEALRLWPTAPAFSLYAKEDTVLGGEYPLEKGDELMVLIPQLHRDKTIWGDDVEEFRPERFENPSAIPQHAFKPFGNGQRACIGQQFALHEATLVLGMMLKHFDFEDHTNYELDIKETLTLKPEGFVVKAKSKKIPLGGIPSPST
modifications: Chimeric Cytochrome P450 heme group sequence from Bacillus megaterium and Bacillus subtilis
notes: CYP102A1 heme domain with residues 46-73 from CYP102A2
B3: Chimera F37233: chimera of the CYP102A1/A2/A3 seven-crossover library (protein)
chain: KQASAIPQPKTYGPLKNLPHLEKEQLSQSLWRIADELGPIFRFDFPGVSSVFVSGHNLVAEVCDEKRFDKNLGKGLQKVREFGGDGLATSWTHEPNWQKAHRILLPSFSQKAMKGYHSMMLDIAVQLIQKWARLNPNEAVDVPGDMTRLTLDTIGLCGFNYRFNSYYRDQPHPFITSMVRALDEAMNKLQRANPDDPAYDENKRQFQEDIKVMNDLVDSIIAERRANGDQDEKDLLARMLNVEDPETGEKLDDENIRFQIITFLIAGHETTSGLLSFATYFLLKHPDKLKKAYEEVDRVLTDAAPTYKQVLELTYIRMILNESLRLWPTAPAFSLYAKEDTVLGGEYPLEKGDELMVLIPQLHRDKTIWGDDVEEFRPERFENPSAIPQHAFKPFGNGQRACIGQQFALQEATMVLGLVLKHFELINHTGYELKIKEALTIKPDDFKITVKPRKTAAINVQRKEQA
modifications: Chimeric Cytochrome P450 heme group polypeptide sequence from CYP102A1 (Bacillus megaterium); CYP102A2 (Bacillus subtilis) and CYP102A3 (Bacillus subtilis)
notes: as for B1

Assays:
[1] = Library plate screen on five test substrates (4-AAP, 12-pNCA); type: biochemical; settings: seven-crossover library, cell lysate, 20 mM H2O2
Protocol: These library plates were replicated and grown in 96 deep-well plates in 900 μL of LB media with 100 μg/ml ampicillin overnight at 30° C. and 250 rpm. 150 μL of this was then transferred to 850 μL of induction media (TB-media with final concentrations of 100 μg/ml ampicillin, 25 μg/ml thiamine, 0.5 mM δ-aminolevulinic acid and 0.6 mM IPTG). These were grown for 20-24 hours at 25° C. and 190 rpm, harvested by centrifugation at 5000×g for 8 minutes and frozen at -20° C. for at least 24 hours. Cells were resuspended using a pipetting robot (Multimek 96, Beckman) and lysed in 400 μL of Epps or Tris buffer (100 mM, pH 8.2) containing 0.8 mg/ml lysozyme and 2 units/mL DNaseI for 1 hour at 37° C. Plates were then spun for 8 minutes at 5000×g and 4° C. to pellet cell debris. 80 μL of lysate was transferred into 4 separate 96 well plates for each library plate. […] On one plate, high -throughput carbon monoxide spectroscopy was done in order to assess relative amounts of P450 (Otey, C. R. High-throughput carbon monoxide binding assay for cytochromes P450. In Directed Enzyme Evolution: Screening and Selection Methods, F. H. Arnold and […]. 137-139 (2003)) with 0.1 M sodium hydrosulfite being used in place of 0.4 M. The other three plates were used to assay activity on different substrates. Examples of assays that have been or could be used include the 4-AAP (Otey, C. R., and Joern, J. M. High-throughput screen for aromatic hydroxylation. In Directed Enzyme Evolution: Screening and Selection Methods, F. H. Arnold and […]. 141-148 (2003)), 12-pNCA (Schwaneberg et al., Anal. Biochem., 269:359-366 (1999), NBP assay ([…], et al., J Biomol Screen, 9:141-146 (2004)), 7-ethoxyresorufin (Sieber et al., Nat Biotechnol., 19:456-460 (2001)), vivid substrate assays (Marks et al., Assay Drug Dev Technol 1, 73-81 (2002); Marks et al., AAPS PharmSci 5, E18 (2003)), and purpald assays (Peters et al., J Am Chem Soc 125:13442-13450 (2003)). Since the heme domains were being used, the hydrogen peroxide was used to drive the reactions via the peroxide shunt (Cirino, P. C., and Arnold, F. H., Advanced Synthesis & Catalysis 344, 932-937 (2002)). The 4-AAP assay detects phenol-like compounds and consists of the addition of 40 μL of a 3.5× substrate solution (containing substrate concentrations dependent for each substrate) to 80 μL of lysate. […] Then a 7×(140 mM) H2O2 hydrogen peroxide solution was added resulting in a final concentration of 20 mM hydrogen peroxide. The reaction was mixed and left at room temperature without shaking for two hours and then quenched with 140 μL of 0.1 m NaOH and 4 M Urea. 38 μL of 0.6% 4-aminoantipyrine was added followed by blanking of the 96-well plate reader at 500 nm. 38 μL of 0.6% potassium persulfate was added and after 20 minutes the A500 was read. […]

[2] = Thermostability (loss of Soret band at increasing temperatures); type: physicochemical; settings: cell extracts heated 10 minutes
Protocol: Thermostability was assayed by monitoring the loss of the Soret band at increasing temperatures. […] However, thermostability may be important for retention of catalytic activity: the two chimeras that lacked peroxygenase activity were also the least thermostable.
Cell extracts were heated in a thermocycler for 10 minutes at various temperatures, followed by cooling to 4° C. Extracts were centrifuged for 5 minutes at 3500×g to remove any precipitates. Carbon monoxide reduced difference spectroscopy was used to quantitate the amount of P450. The reduction of the carbon monoxide peak was monitored over a range of temperatures.

[3] = Peroxidase activity with ABTS and H2O2; type: biochemical; settings: 10 mM ABTS, 20 mM H2O2, pH 5.0; activities <0.2 not detectable (N.D.)
Excerpt: P450s can reduce peroxide to water (and a proton) using a mechanism similar to that of peroxidases, although the intrinsic rate for P450s is many orders of magnitude slower. (Mansuy, D., Comp Biochem Physiol C Pharmacol Toxicol Endocrinol 121, 5-14 (1998)). It has been proposed that the earliest P450 function may have been as a peroxidase. (Gotoh, O., Cytochrome P450, 2nd Edition, pp. 255-272 (1993)). To investigate how recombination affects P450 peroxidase activity, the colorimetric substrate 2,2′-azino-bis(3-ethylbenzothiazoline-6-sulfonate) (ABTS) was used to monitor this reaction (Childs et al., Biochem J 145,93-103 (1975)).
This example provides an example of how one can measure peroxidase activity. Initial rates of peroxidase activity were measured by monitoring the accumulation of the radical cation of ABTS at 414 nm (Childs et al., Biochem J., 145:93-103 (1975)). Enzyme (1 μM) was mixed with 10 mM ABTS in 200 mM phosphate buffer (pH 5.0) in a cuvette at room temperature. Samples were zeroed and reactions were initiated with the addition of H2O2 to a concentration of 20 mM. The absorbance at 414 nm was monitored for 5 minutes. Rates were determined from the steepest portion of the time course. An extinction coefficient of […] for ABTS was used.

[4] = Peroxygenase activity on 2-phenoxy-ethanol (4-AAP assay); type: biochemical
Protocol: (§1) The chimeras were assayed for hydroxylation of p-nitrophenoxydodecanoic acid (12-pNCA), a fatty acid analog that is hydroxylated by CYP102A1 and CYP102A2 to yield p-nitrophenolate (Schwaneberg et al., Anal Biochem 269,359-366 (1999)). […] When hydroxylation rates for the parent CYP102 enzymes were monitored using the maximum soluble concentrations of these substrates, activity could only be detected on 2-phenoxy-ethanol.
(§2) Rates on 2-phenoxy-ethanol and allyloxy-benzene were determined using 2 μM enzyme, 20 mM H2O2, 1% DMSO, and 1% acetone in 100 mM N-[2-hydroxyethyl]piperazine-N′-[3-propanesulfonic acid] (Epps) (pH 8.2) at room temperature. Substrate concentrations for 2-phenoxy-ethanol (100 mM) and allyloxy benzene (50 mM) maintained saturation. Reactions were initiated by the addition of H2O2 and quenched at appropriate times using an equal volume of a solution containing 4M urea and 100 mM NaOH. 120 μl of 0.6% 4-AAP was added, followed by mixing and addition of 120 μl of 0.6% potassium persulfate. Color was allowed to develop for 20 minutes before absorbance was read at 500 nm. Rates were determined from the linear region of the time course. The major products were determined by GC/MS to be the hemiacetal, which decomposes to phenol. The extinction coefficient for the 4-AAP/phenol complex was determined to be 4,800 M^−1cm^−1. The results can be seen in FIG. 4.

[5] = Peroxygenase substrate activity profile; type: biochemical; settings: 20 mM H2O2
Protocol: as §1
Chimeras were assayed for peroxygenase activity on 12-pNCA, 2-phenoxy -ethanol and allyloxy-benzene. […] Rates are reported in nmol product/nmol P450/minute. […] Those with no activity include 65-256 and 277-365. Those with new activity include 165-256, 191-335, and 43-135.
This Example provides one method by which peroxygenase activity of a P450 enzyme may be characterized. First order rates for p-nitrophenolate accumulation were determined using 1 μM enzyme, 20 mM H2O2, 250 μM 12-pNCA and 0.5% dimethyl sulfoxide (DMSO) in 100 mM Tris-HCl (pH 8.2) at room temperature. Enzyme, substrate, buffer and DMSO were combined in a cuvette and zeroed at 410 nm. Reaction mixtures were incubated for 4 minutes and initiated by the addition of H2O2 to a final concentration of 20 mM. Initial rates were determined by monitoring the accumulation of p-nitrophenolate at 410 nm, and data from the first six seconds were used to determine initial rates. […] The extinction coefficient of p-nitrophenolate is 13,200 M^−1cm^−1 (Schwaneberg et al., Anal Biochem 269:359-366 (1999)).
as §2

Molecule	activity on test substrates incl. novel substrates (diphenyl ether, allyloxy-benzene) [1]	Tm [2]	Peroxidase activity [3]	fold higher peroxygenase activity with 2-phenoxy-ethanol than the most active parent (CYP102A1) [4]	peroxygenase activity on 2-phenoxy-ethanol ([4]; 100 mM substrate)	substrate activity profile relative to parents [5]
B1	activity that is novel					
B2		55 °C	6.8 nmol product/nmol P450/min	6 fold	highest activity	altered activity
B3	activity that is novel					
